The target of this assay is CD123 (human) (UniProt P26951). As to the kind of experiment: cell-based or functional assay.
Sequence of UniProt P26951 (P26951 19-378): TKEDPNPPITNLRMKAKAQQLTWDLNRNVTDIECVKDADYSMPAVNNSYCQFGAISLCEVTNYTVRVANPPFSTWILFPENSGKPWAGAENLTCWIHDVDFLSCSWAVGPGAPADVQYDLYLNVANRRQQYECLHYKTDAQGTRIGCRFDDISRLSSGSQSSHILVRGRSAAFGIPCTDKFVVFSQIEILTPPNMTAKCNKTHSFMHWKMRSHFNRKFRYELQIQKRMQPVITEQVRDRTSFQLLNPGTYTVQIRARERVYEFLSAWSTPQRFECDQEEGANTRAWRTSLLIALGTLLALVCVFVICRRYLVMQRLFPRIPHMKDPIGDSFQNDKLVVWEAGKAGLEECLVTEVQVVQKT

Turning to “diphtheria toxin-human interleukin-3 conjugate (DT-IL3)”, the IC50, cell viability assay turned out to be 4.8 nM.

The record behind these values is patent US20220001020A1.
